# Test results as given in publication PMC3173086.
# Biological target: MppA (murein tripeptide-binding protein of E. coli), His tag cleaved (E. coli K-12) (UniProt P77348)
# Assay: other fluorescence titration
# UniProt P77348, sequence (P77348 23-537, tags left off): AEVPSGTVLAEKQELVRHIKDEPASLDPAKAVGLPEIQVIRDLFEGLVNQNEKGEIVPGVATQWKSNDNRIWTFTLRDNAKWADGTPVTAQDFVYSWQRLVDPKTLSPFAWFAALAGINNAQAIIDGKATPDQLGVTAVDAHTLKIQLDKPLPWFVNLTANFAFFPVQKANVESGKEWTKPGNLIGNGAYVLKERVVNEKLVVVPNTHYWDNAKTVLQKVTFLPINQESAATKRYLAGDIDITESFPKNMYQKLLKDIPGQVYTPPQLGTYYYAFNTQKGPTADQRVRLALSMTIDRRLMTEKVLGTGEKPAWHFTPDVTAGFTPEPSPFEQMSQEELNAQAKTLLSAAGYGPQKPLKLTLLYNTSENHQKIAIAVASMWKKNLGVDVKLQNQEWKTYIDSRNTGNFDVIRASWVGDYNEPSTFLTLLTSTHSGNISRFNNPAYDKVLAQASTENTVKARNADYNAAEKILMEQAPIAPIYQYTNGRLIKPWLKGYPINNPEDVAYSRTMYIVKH
substance,measurement,value
L-Ala-γ-D-Glu-L-Lys (peptide),Kd,130 µM
